Laboratory results from the supplement of paper PMC9112550, “Optimization of the antimicrobial peptide Bac7 by deep mutational scanning” (BMC Biology, 2022).

Tested on: Escherichia coli TOP10
Experiment: shrunken log2 fold change of peptide-encoding DNA abundance (4.5 h post-induction vs induction); higher = less antimicrobial activity (less host growth inhibition)
Settings: time post-induction: 4.5 h; library: site-saturation at positions 5, 18, 19, 20
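Further: peptides expressed intracellularly from a pBAD plasmid library in pooled LB shake-flask culture, induced with 0.3% L-arabinose, DNA abundance read by NGS, three biological replicates, DESeq2 with apeglm shrinkage.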

Point of comparison: RRIRARPPRLPRPRPRPDEMPRP, “shrunken log2 fold change” value 0.546. Against it:
- RRIRARPPRLPRPRPRPAAQPRP — higher, 0.916
- RRIRARPPRLPRPRPRPADWPRP — higher, 0.984
- RRIRARPPRLPRPRPRPAEEPRP — within 0.2 log units, 0.697
- RRIRARPPRLPRPRPRPAEHPRP — lower, 0.193
- RRIRARPPRLPRPRPRPAFEPRP — within 0.2 log units, 0.702
- RRIRARPPRLPRPRPRPAGFPRP — within 0.2 log units, 0.365
- RRIRARPPRLPRPRPRPAGNPRP — lower, 0.129
- RRIRARPPRLPRPRPRPAHGPRP — within 0.2 log units, 0.694
- RRIRARPPRLPRPRPRPAHIPRP — lower, 0.241
- RRIRARPPRLPRPRPRPAKHPRP — within 0.2 log units, 0.558
- RRIRARPPRLPRPRPRPAKIPRP — lower, 0.321
- RRIRARPPRLPRPRPRPAMEPRP — within 0.2 log units, 0.372
- RRIRARPPRLPRPRPRPANTPRP — lower, 0.0584
- RRIRARPPRLPRPRPRPAPHPRP — higher, 0.814
- RRIRARPPRLPRPRPRPAQMPRP — within 0.2 log units, 0.743
- RRIRARPPRLPRPRPRPAQSPRP — within 0.2 log units, 0.538
- RRIRARPPRLPRPRPRPARAPRP — higher, 0.834
- RRIRARPPRLPRPRPRPARYPRP — lower, 0.12
- RRIRARPPRLPRPRPRPASEPRP — lower, 0.285
- RRIRARPPRLPRPRPRPASFPRP — within 0.2 log units, 0.387
- RRIRARPPRLPRPRPRPATEPRP — higher, 0.795
- RRIRARPPRLPRPRPRPATFPRP — lower, 0.129
- RRIRARPPRLPRPRPRPAWTPRP — lower, -0.0258
- RRIRARPPRLPRPRPRPCALPRP — lower, 0.00197
- RRIRARPPRLPRPRPRPCAQPRP — within 0.2 log units, 0.483
- RRIRARPPRLPRPRPRPCCCPRP — within 0.2 log units, 0.689
- RRIRARPPRLPRPRPRPCCYPRP — lower, 0.0589
- RRIRARPPRLPRPRPRPCDIPRP — lower, -0.2
- RRIRARPPRLPRPRPRPCDPPRP — lower, -0.106
- RRIRARPPRLPRPRPRPCEEPRP — within 0.2 log units, 0.622
- RRIRARPPRLPRPRPRPCEYPRP — lower, -0.133
- RRIRARPPRLPRPRPRPCGDPRP — lower, -0.239
- RRIRARPPRLPRPRPRPCHSPRP — lower, 0.0213
- RRIRARPPRLPRPRPRPCIAPRP — lower, -0.0146
- RRIRARPPRLPRPRPRPCIKPRP — lower, 0.126
- RRIRARPPRLPRPRPRPCILPRP — lower, -1.06
- RRIRARPPRLPRPRPRPCIYPRP — lower, -0.0979
- RRIRARPPRLPRPRPRPCKPPRP — lower, -0.331
- RRIRARPPRLPRPRPRPCKRPRP — lower, -0.0822
- RRIRARPPRLPRPRPRPCLGPRP — lower, 0.0637
- RRIRARPPRLPRPRPRPCLQPRP — lower, -0.0914
- RRIRARPPRLPRPRPRPCMEPRP — lower, 0.0522
- RRIRARPPRLPRPRPRPCMYPRP — lower, -0.49
- RRIRARPPRLPRPRPRPCNRPRP — lower, 0.0805
- RRIRARPPRLPRPRPRPCPKPRP — lower, -0.0619
- RRIRARPPRLPRPRPRPCPPPRP — lower, 0.156
- RRIRARPPRLPRPRPRPCPQPRP — lower, -0.00027
- RRIRARPPRLPRPRPRPCPVPRP — lower, 0.0768
- RRIRARPPRLPRPRPRPCQAPRP — within 0.2 log units, 0.483
- RRIRARPPRLPRPRPRPCRSPRP — lower, -0.0342
- RRIRARPPRLPRPRPRPCSDPRP — within 0.2 log units, 0.431
- RRIRARPPRLPRPRPRPCSKPRP — lower, 0.0365
- RRIRARPPRLPRPRPRPCSQPRP — lower, -0.172
- RRIRARPPRLPRPRPRPCTFPRP — lower, -0.365
- RRIRARPPRLPRPRPRPCTIPRP — lower, -0.000283
- RRIRARPPRLPRPRPRPCTQPRP — lower, 0.148
- RRIRARPPRLPRPRPRPCTRPRP — lower, -0.00176
- RRIRARPPRLPRPRPRPCVHPRP — higher, 1.06
- RRIRARPPRLPRPRPRPCVMPRP — lower, -0.0813
- RRIRARPPRLPRPRPRPCVYPRP — lower, 0.121
- RRIRARPPRLPRPRPRPCWEPRP — higher, 0.755
- RRIRARPPRLPRPRPRPCWTPRP — lower, 0.01
- RRIRARPPRLPRPRPRPCYLPRP — lower, -0.262
- RRIRARPPRLPRPRPRPCYMPRP — lower, -0.0886
- RRIRARPPRLPRPRPRPDALPRP — within 0.2 log units, 0.625
- RRIRARPPRLPRPRPRPDCVPRP — higher, 0.813
- RRIRARPPRLPRPRPRPDDEPRP — higher, 1.43
- RRIRARPPRLPRPRPRPDFEPRP — within 0.2 log units, 0.661
- RRIRARPPRLPRPRPRPDGHPRP — lower, 0.0106
- RRIRARPPRLPRPRPRPDHGPRP — lower, -0.144
- RRIRARPPRLPRPRPRPDHKPRP — lower, -0.312
- RRIRARPPRLPRPRPRPDIEPRP — lower, -0.0212
- RRIRARPPRLPRPRPRPDLHPRP — within 0.2 log units, 0.474
- RRIRARPPRLPRPRPRPDLWPRP — higher, 1.51
- RRIRARPPRLPRPRPRPDMNPRP — lower, 0.31
- RRIRARPPRLPRPRPRPDNCPRP — lower, -0.153
- RRIRARPPRLPRPRPRPDNLPRP — lower, -0.0846
- RRIRARPPRLPRPRPRPDPPPRP — higher, 0.901
- RRIRARPPRLPRPRPRPDPYPRP — lower, -0.169
- RRIRARPPRLPRPRPRPDQIPRP — lower, 0.327
- RRIRARPPRLPRPRPRPDRDPRP — lower, -0.0499
- RRIRARPPRLPRPRPRPDRIPRP — lower, -0.00136
- RRIRARPPRLPRPRPRPDTKPRP — lower, 0.0293
- RRIRARPPRLPRPRPRPDTPPRP — lower, 0.331
- RRIRARPPRLPRPRPRPDVHPRP — lower, 0.196
- RRIRARPPRLPRPRPRPDWHPRP — lower, 0.136
- RRIRARPPRLPRPRPRPDWKPRP — lower, -0.108
- RRIRARPPRLPRPRPRPDYIPRP — lower, 0.00625
- RRIRARPPRLPRPRPRPDYNPRP — lower, -0.57
- RRIRARPPRLPRPRPRPEAEPRP — higher, 1.61
- RRIRARPPRLPRPRPRPEAVPRP — higher, 1.59
- RRIRARPPRLPRPRPRPEGIPRP — lower, 0.0659
- RRIRARPPRLPRPRPRPEHDPRP — lower, -0.0905
- RRIRARPPRLPRPRPRPEHQPRP — within 0.2 log units, 0.399
- RRIRARPPRLPRPRPRPEHRPRP — lower, 0.0198
- RRIRARPPRLPRPRPRPEIWPRP — higher, 1.55
- RRIRARPPRLPRPRPRPEKIPRP — within 0.2 log units, 0.649
- RRIRARPPRLPRPRPRPEKLPRP — higher, 0.758
- RRIRARPPRLPRPRPRPELAPRP — higher, 1.39
- RRIRARPPRLPRPRPRPELQPRP — within 0.2 log units, 0.731
- RRIRARPPRLPRPRPRPEQEPRP — lower, 0.00961
- RRIRARPPRLPRPRPRPEQHPRP — within 0.2 log units, 0.562
- RRIRARPPRLPRPRPRPEQPPRP — lower, 0.343
- RRIRARPPRLPRPRPRPERCPRP — higher, 1.09
- RRIRARPPRLPRPRPRPERQPRP — higher, 1.13
- RRIRARPPRLPRPRPRPESKPRP — lower, 0.015
- RRIRARPPRLPRPRPRPETFPRP — lower, -0.0526
- RRIRARPPRLPRPRPRPEVEPRP — higher, 1.3
